Data on 24 sequences can be found in the DeepSol protein solubility set.

A short description of this data set: soluble on expression in E. coli; label from the status in PepcDB or PDB records.
On to “MIKLSEKGVFLASNNEIIAEEHFTGEIKKEEAKKGTIAWSILSSHNTSGNMDKLKIKFDSLASHDITFVGIVQTAKASGMERFPLPYVLTNCHNSLCAVGGTINGDDHVFGLSAAQRYGGIFVPPHIAVIHQYMREMMAGGGKMILGSDSHTRYGALGTMAVGEGGGELVKQLLNDTWDIDYPGVVAVHLTGKPAPYVGPQDVALAIIGAVFKNGYVKNKVMEFVGPGVSALSTDFRNSVDVMTTETTCLSSVWQTDEEVHNWLALHGRGQDYCQLNPQPMAYYDGCISVDLSAIKPMIALPFHPSNVYEIDTLNQNLTDILREIEIESERVAHGKAKLSLLDKVENGRLKVQQGIIAGCSGGNYENVIAAANALRGQSCGNDTFSLAVYPSSQPVFMDLAKKGVVADLIGAGAIIRTAFCGPCFGAGDTPINNGLSIRHTTRNFPNREGSKPANGQMSAVALMDARSIAATAANGGYLTSASELDCWDNVPEYAFDVTPYKNRVYQGFVKGATQQPLIYGPNIKDWPELGALTDNIVLKVCSKILDEVTTTDELIPSGETSSYRSNPIGLAEFTLSRRDPGYVSRSKATAELENQRLAGNVSELTEVFARIKQIAGQEHIDPLQTEIGSMVYAVKPGDGSAREQAASCQRVIGGLANIAEEYATKRYRSNVINWGMLPLQMAEVPTFEVGDYIYIPGIKAALDNPGTTFKGYVIHEDAPVTEITLYMESLTAEEREIIKAGSLINFNKNRQM”, for which the “soluble on expression in E. coli” value was “soluble”.
For “MIKLSSITAHILDIWHRRNSRSYIAHLRSLGIRIGDGCIFRDPLTTRIDVSRPALVSIGSNVDMNTYFQILTHDWASFVFRNKYHDFVNSSGRVEIGSNIYIGTNVIVLRGVTIGDNCVIGAGSVVTHDIPANSVAVGAPCRVVCSLEHHHHHH”, the “soluble on expression in E. coli” value is on record as “soluble”.
Take “MIKRNLLVIGLAVMLSACGFQLRGTGATELSVKEMDVSARNAYGPTVLQLREVLERSGVNVHAGAPYRLVLTNEQERERSATYNSGNRTAEYELTTKLDYSILGLNNLELMSDKLEVRKVYVRDGSNITGSEQEAKRAREEMRRDLVNAMVVRLQMLSPPQLDELQRKADERAQAEAAALEAARRQQAETPQQSPLEVPGN”: the “soluble on expression in E. coli” value is “not soluble”.
With “MIKRNLLVMGLAVLLSACGFQLRGTGTQELSIKELDLSARDAYGTTIKMLKQQLESSGVRVHAGAPYKLVLLSEENSQRTLSYTGGGNSAEYEIGTTLRYEILTHDNLHLLDDKLEVQKVFLHDGNNITGSDQESSETRKEMRRDLIQRMLIRLQLLTPEQLAQLQATAEAKAKAEADALEAARKAEAETPQQSPMELPNQLEHHHHHH”, the “soluble on expression in E. coli” value was “soluble”.
As to “MILFPQNEDTVMSEMVAFRQGTSMPSRETILHYVVETVNQITELEPALHLLPWSGVNSAIYEQRFAQCYDEGLCAAQTSAPNVPQGILPSTDWAQGIGLLCFAAGYMSAGERPLTHNQLCDFVKQAAVGLSPIEGEAASGFSTVRSIALPVFRRLQRDGHASRVLLLQTLLHLVAWKSASQYARQQAQRLLWMGGILGEGGEHSLLVLDKALREEAVGEKSLPALLIFTSFLAHFPAGPVFID”, the “soluble on expression in E. coli” value is listed as “not soluble”.
The value for “MILKALPNESMPREKLLQRGPQALTDAELLAIFLRTGTQGMNVIELADFLIQDFGSLRQLFSASEQEFCQHKGLGQAKYVQLQAVLEMTQRYLAETLKRGDALTSPEQTKLYLSSILRDRQREAFYILFLDNQHRVIKDEILFEGTLDAASVYPREVVKRALHHNAAALILAHNHPSGVAEPSQADRRITRRLIDALALVDIRILDHFVIGDGESVSFAERGWI” was “not soluble”.
In the case of “MIMFNYQQTSQSCVKCGKCIPSCTIYNIHPDEVTSPRGFIDLLGAYQRGELELDKNAKDIFEKCFLCTNCTYVCPNLLPTDQVIENVRAEIAQKFGIAWFKRAYFFLLRNRWLEHHHHHH” it was “soluble”.
The value for “MIMGLENLKPAKGSVKKIKRVGRGQGSGMGKTATRGGKGQTARTGYKAKRGFEGGQQPLQRRLPKIGFRTKDSHIYSINVEKNEAIKNLEEITFSSLRALHHFPLYIEGVKLIGKDAKNLASKIKDERIKTSGQKLEHHHHHH” was “soluble”; that for “MIMQEKIKEIASRVRELRELSEISVEKMAEYLQVSKEIYEKYENGTEDIPASILFEIAHRLQVDMATLLTGEEPRMNVFTVTRSGKGVSVERREQYRYQNLAEKFIHKKAEFFIVTVDPKPQGTKPDTNSHPGQEFNYVLEGSLKVYIHHNEIILNEGDSIYFDSNYQHAMEAMNGKTAKFLAVIM” was “not soluble”.
Take “MINSKVKPQAVVADAHEDTIRSLYMESLHLVERLHRRLLDVIKDEFDRQGRDDVNAVQALLLFNIGNSELTAGELRSRGYYLGSNVSYNVKKLVDLGLINHQRSRVDRRSVRISLTEEGQAIAETVARLYERHVGSIEKVGGIGTGEFSEMNKLLQRLDRFWNDSIAYRL”: the “soluble on expression in E. coli” value was “not soluble”.
Consider “MIPEPDILVVGGGLGGVAAALAACRAGRSVVLTEETDWIGGQLTSQAVPPDEHPWVEQFGTTATYRRLREGIRQYYRQWYPLRAEAAALTDLNPGAGRVSKLCHEPRVALAVLEGMLAPHRAAGRLTVLTEHRPVAAETDNDVVRAVTLEDLRDGTRRTVPARYVLDATETGELLHLAGVEHVNGAESRAEFDEPHAPDRAQPGNQQGITVCFALSHHEGEDHTIDRPADYDFWRDYKPDFWPGPLLGFEAPDPRTLEPVPRTFEPNPDLDPLAVSADQSADAGDKELWGFRRILARKLHTDGAFDSDITLVNWPLNDYWLKPYIGQEAEALREARQLSLSVLYWLQTEAPRTDGGTGFPGLRPRPDVTGTADGLAKAAYVRESRRIKAVTTVTEHDVSIDLLGPYGRTRHRDSVGVGNYRIDLHPSTGGDGYVDIGSVPFEIPLGALVPRRVRNLLPAGKNLGTTHITNGCYRLHPVEWNVGEVAGALAAHCLAEDVEPHQVQAEDKRFEEFARVLDHDGVQRHWPDVRGYLEHHHHHH”, for which the “soluble on expression in E. coli” value is on record as “not soluble”.
On to “MIPKSTGYLADLNIHWKNYIQYLHKIEVAPKTKLQLLHDVANRIFIVESGSVRMGFEKDGKDITLQFFFEDELVASVESLFNQTPSKYFIETIEHSTIYYLTKEMLEVMALKLPEMANITQDILMSRLIYYSNHLHSYISETPEQRFNKLIETRPYIFMRVSQRHIASYLGITNVSLSRIKARKSVVYDQQPATVSVAEADNEEYLKS”, for which the “soluble on expression in E. coli” value is “not soluble”.
The value for “MIPLLGIISLSLNISGPKYRLEMGLGGKVAVDSTFSNEGVQKATEPNGTKVTYYYGGESKGFIEFSSDWKLKINEKCDINFGPRIKLLNISHIAKNIFFFLGITAGAGFEFNYNIRENVKFYTGIDGLIGMGTFMNLNNSSSKDTESKKISVIYDFIPESNVTVGTKINDKYNVGLFVDILQGYFGLKAGYTF” was “not soluble”; that for “MIQARSRRPLSCSLRSSSQNPIATTFLTGGKMDRIVRQILVKLLGGERSVYELIYYQDASLREFFELLNSLRDEGLIEVESGKVRITEKGREVAEKERLKFCGDVECECCEGTGLSINPYFKEILQKYSEIAKDRPETIEVYDQGFISLEGVIRRVEFVYDRGDLNGRIFVVGDDDLFGIAASLTGMPEKVAVVDIDERLINFINRVAEEYSLNVEAFVYDVQQAFPDELKRKFDVFVTDPVETIPGLKLFLSRGVSTLKGVGGAGYFGITTLEASRRKWYEIQRMIHDMGFIITDLRRRFNVYPEDEKNFFRFQEKLPIVRHLQAKVDFNWYNSTLFRIEAVKEPKPIVEGEMIIDEKVYKDDESWATPY” was “not soluble”; that for “MIQFKNISKHYQLKGQTIHALDQINLDIPAGSIFGIIGYSGAGKSTLIRLINLLERPTHGQIIINQKDFTALNAQSLRQERANIGMIFQHFNLLQTKTVAANIEMPLKLLGYSKIEREKRLMELLDFIDLTHKKDAFPDELSGGQKQRVGIARALANHPKILLCDEATSALDPQTTKSVLALLKKINKEQGITIVMVTHEMDVIESICDHVAVMESGHVIETGPTVEIFSNPQHPTTKTFIQTVLQQHLPVNILSKLEHQHHHSIYRLQFLGKSAQEPVIQSMIKQFDISLNILFANMTEIDGTVIGQMFVQLLGDDTLIQQAIEFLERHGVSVNQSGEQV” was “not soluble”.
The value for “MIQKGLEGVKICESSICYLDGINGRLYYRGIPVEELAEKSTFEETAYFLWYGKLPTKSELEEFKRKMADYRELPAEALGILYHLPKNLHYIDVLKIFLSIHGSMDGNDEDLREKAIRVASVFPTILAYYYRYSKGKELIRPRKDLSHVENFYYMMFGERNEKIRLLESAFILLMEQDINASTFAALVIASTLSDLYSCIVGALGALKGPLHGGASEKVPPMLEEIGSEDRVEEFVQKCLKEKRKIMGFGHRVYKTYDPRAVFLKRVLQEHFPDSKLFRIASKLEEYIVSNKIKNIYPNVDLYSSVLFEELGFPRNMFTALFATARVVGWTAHVIEYVSDNKLIRPTSEYVGPMDVEYIPIERRDENG” was “soluble”.
“MIQKINILDSSQSGVKNGADSEAVLAALIEHLELINPSGRLSQNTRSAMLQLREEEWSEFFFWLLNSLECLDYVIINLTPESKKTLMSEHRNNIQVAIDALYSQRRRKSPGDESETLTRRNDAIFGNHVWQTFAQYFPPGLEKPSV”: the “soluble on expression in E. coli” value is “not soluble”.
In the case of “MIRELFEKEGFTLDEEQERKFSIYLQELLRWNKVHNLTSIKKPEEIVRRHFIDSVSVVRCFERIGLDLRGKHFADVGSGAGFPGVPLKIYLKDIKLTLIESVSKKCSFLEYLKIKLNEDYRVLCTRAEKVEEKFDVVLARALGEFEEVKEILEKLSIGYVFVYKGSKLKEEWLKDYKLCELSLSFMPKSYILWKKVLEHHHHHH” it was “not soluble”; in that of “MIRLIGMEDGKTLEDLVKTKIATDTKHKPRKDAVLCSEMFLSASPEYFRPHDPSLAGEWNDERMVLFAKASITWLKTNYGDKCVRAELHLDEATPHIHAYIVPINDKTKLLSHKEMFGGDGRVGSIKLSKLQDSYAQALAPLGIERGVKGSKATHTKVKEYYQAVNSEPLTAVWSNQKLEHHHHHH”, “not soluble”.
Turning to “MIRRLPMTDSRGMNSDKYGIPNIHIRTTPGPDMDKQTKQTNDSGFNSYSRKYHIPRLWYEPARGIYCSDSVSYSWFIQFLQGGIVHVLCRTSLLSISRILRKRGQKVYFGLRKRHEKLVGFASGHGLCLPGPFQHDPIAPVLLPRFPFVRQGRLVRSVLHTGLFE”, the “soluble on expression in E. coli” value was “not soluble”.
The value for “MISGHGDFPIALKESSGMIFGEENNLIAVPFFKGEGIQTLQEKYHQALKDIPEEHEVLFLVDIFGGTPYNAAASFIAEDQRMDMAAGVNLPILLEVLSLREHLALKDLLNNLKAMSQQSFQVCSEHLEKVKTANQD” was “not soluble”.
In the case of “MISLIAALAVDRVIGMENAMPWNLPADLAWFKRNTLDKPVIMGRHTWESIGRPLPGRKNIILSSQPGTDDRVTWVKSVDEAIAACGDVPEIMVIGGGRVYEQFLPKAQKLYLTHIDAEVEGDTHFPDYEPDDWESVFSEFHDADAQNSHSYCFEILERR” it was “soluble”; in that of “MISLPAGSRIWLVAGITDMRNGFNGLASKVQNVLKDDPFSGHLFIFRGRRGDQIKVLWADSDGLCLFTKRLERGRFVWPVTRDGKVHLTPAQLSMLLEGINWKHPKRTERAGIRI”, “not soluble”.
In the case of “MITFEKVTVENESVVKEMFKSHSLGEKKVQYCVKVDDTYIGVIDYSVQEERAVLSQLIIHFDYQGYGYGTNTYFTFEEMMKQRNVKEIKVLKEKLTEKAKSFIESFGFTSEDEEYVKKI” it was “not soluble”.
